From the Human Domainome abundance scans (Beltran et al. 2025) come the findings set out here.

To fix the notation:
B1: Ankyrin-1, residues 1405 to 1484; numbered along this chain, P16157 (parent)
chain: MKMAVISEHLGLSWAELARELQFSVEDINRIRVENPNSLLEQSVALLNLWVIREGQNANMENLYTALQSIDRGEIVNMLE

± gives the uncertainty stated by the source.

The variants in the series derive from B1. Briefly: abundance fitness (aPCA) (normalised: wild type 0, dead -1); higher = more abundant; growth selection in yeast, the domain comes from the species named. Particulars: Homo sapiens.
Take MKMAVISEHLGLSWAELARELQFSVEDINRIRVENPNSLLEQSVALLNLWVIREGQNAGMENLYTALQSIDRGEIVNMLE [N59G]: the abundance fitness is -0.151 ± 0.058.
As to MKMAVISEHLGLSWAELARELQFSVEDINRIRVENPNSLLEQSVALLNLWVIREGQNADMENLYTALQSIDRGEIVNMLE [N59D], the abundance fitness was 0.245 ± 0.11.
MKMAVISEHLGLSWAELARELQFSVEDINRIRVENPNSLLEQSVALLNLWVIREGQNAQMENLYTALQSIDRGEIVNMLE [N59Q]: the abundance fitness was -0.031 ± 0.11.
Regarding MKMAVISEHLGLSWAELARELQFSVEDINRIRVENPNSLLEQSVALLNLWVIREGQNARMENLYTALQSIDRGEIVNMLE [N59R], the abundance fitness came out at 0.034 ± 0.053.
Take MKMAVISEHLGLSWAELARELQFSVEDINRIRVENPNSLLEQSVALLNLWVIREGQNATMENLYTALQSIDRGEIVNMLE [N59T]: the abundance fitness was -0.338 ± 0.16.
In the case of MKMAVISEHLGLSWAELARELQFSVEDINRIRVENPNSLLEQSVALLNLWVIREGQNAAMENLYTALQSIDRGEIVNMLE [N59A], the abundance fitness was -0.047 ± 0.078.
For MKMAVISEHLGLSWAELARELQFSVEDINRIRVENPNSLLEQSVALLNLWVIREGQNAFMENLYTALQSIDRGEIVNMLE [N59F] the value was -0.388 ± 0.17; for MKMAVISEHLGLSWAELARELQFSVEDINRIRVENPNSLLEQSVALLNLWVIREGQNAPMENLYTALQSIDRGEIVNMLE [N59P], -0.253 ± 0.12; for MKMAVISEHLGLSWAELARELQFSVEDINRIRVENPNSLLEQSVALLNLWVIREGQNACMENLYTALQSIDRGEIVNMLE [N59C], -0.222 ± 0.12.
Regarding MKMAVISEHLGLSWAELARELQFSVEDINRIRVENPNSLLEQSVALLNLWVIREGQNALMENLYTALQSIDRGEIVNMLE [N59L], the abundance fitness was -0.2 ± 0.1.
For the variant MKMAVISEHLGLSWAELARELQFSVEDINRIRVENPNSLLEQSVALLNLWVIREGQNASMENLYTALQSIDRGEIVNMLE [N59S], the abundance fitness amounted to 0.059 ± 0.062.
For MKMAVISEHLGLSWAELARELQFSVEDINRIRVENPNSLLEQSVALLNLWVIREGQNAKMENLYTALQSIDRGEIVNMLE [N59K] the value was -0.02 ± 0.19.
On to MKMAVISEHLGLSWAELARELQFSVEDINRIRVENPNSLLEQSVALLNLWVIREGQNAIMENLYTALQSIDRGEIVNMLE [N59I], for which the abundance fitness was -0.314 ± 0.2.
Regarding MKMAVISEHLGLSWAELARELQFSVEDINRIRVENPNSLLEQSVALLNLWVIREGQNANCENLYTALQSIDRGEIVNMLE [M60C], the abundance fitness is -0.564 ± 0.23.
Consider MKMAVISEHLGLSWAELARELQFSVEDINRIRVENPNSLLEQSVALLNLWVIREGQNANFENLYTALQSIDRGEIVNMLE [M60F], for which the abundance fitness worked out at 0.671 ± 0.27.
As for MKMAVISEHLGLSWAELARELQFSVEDINRIRVENPNSLLEQSVALLNLWVIREGQNANEENLYTALQSIDRGEIVNMLE [M60E], the abundance fitness is -0.42 ± 0.18.
As to MKMAVISEHLGLSWAELARELQFSVEDINRIRVENPNSLLEQSVALLNLWVIREGQNANAENLYTALQSIDRGEIVNMLE [M60A], the abundance fitness is -0.343 ± 0.16.
As for MKMAVISEHLGLSWAELARELQFSVEDINRIRVENPNSLLEQSVALLNLWVIREGQNENMENLYTALQSIDRGEIVNMLE [A58E], the abundance fitness is -0.192 ± 0.1.
Take MKMAVISEHLGLSWAELARELQFSVEDINRIRVENPNSLLEQSVALLNLWVIREGQNINMENLYTALQSIDRGEIVNMLE [A58I]: the abundance fitness is -0.008 ± 0.19.
For the variant MKMAVISEHLGLSWAELARELQFSVEDINRIRVENPNSLLEQSVALLNLWVIREGQNPNMENLYTALQSIDRGEIVNMLE [A58P], the abundance fitness came out at 0.195 ± 0.083.
MKMAVISEHLGLSWAELARELQFSVEDINRIRVENPNSLLEQSVALLNLWVIREGQNMNMENLYTALQSIDRGEIVNMLE [A58M]: the abundance fitness came to 0.122 ± 0.17.
As for MKMAVISEHLGLSWAELARELQFSVEDINRIRVENPNSLLEQSVALLNLWVIREGQNLNMENLYTALQSIDRGEIVNMLE [A58L], the abundance fitness was 0.157 ± 0.063.
MKMAVISEHLGLSWAELARELQFSVEDINRIRVENPNSLLEQSVALLNLWVIREGQNTNMENLYTALQSIDRGEIVNMLE [A58T]: the abundance fitness is -0.195 ± 0.14.
Turning to MKMAVISEHLGLSWAELARELQFSVEDINRIRVENPNSLLEQSVALLNLWVIREGQNVNMENLYTALQSIDRGEIVNMLE [A58V], the abundance fitness is 0.124 ± 0.064.
In the case of MKMAVISEHLGLSWAELARELQFSVEDINRIRVENPNSLLEQSVALLNLWVIREGQNKNMENLYTALQSIDRGEIVNMLE [A58K], the abundance fitness was determined as 0.046 ± 0.057.
As to MKMAVISEHLGLSWAELARELQFSVEDINRIRVENPNSLLEQSVALLNLWVIREGQNFNMENLYTALQSIDRGEIVNMLE [A58F], the abundance fitness was -0.253 ± 0.2.
On to MKMAVISEHLGLSWAELARELQFSVEDINRIRVENPNSLLEQSVALLNLWVIREGQNQNMENLYTALQSIDRGEIVNMLE [A58Q], for which the abundance fitness was -0.095 ± 0.14.
MKMAVISEHLGLSWAELARELQFSVEDINRIRVENPNSLLEQSVALLNLWVIREGQNCNMENLYTALQSIDRGEIVNMLE [A58C]: the abundance fitness came to 0.031 ± 0.14.
In the case of MKMAVISEHLGLSWAELARELQFSVEDINRIRVENPNSLLEQSVALLNLWVIREGQNWNMENLYTALQSIDRGEIVNMLE [A58W], the abundance fitness is -0.062 ± 0.077.
In the case of MKMAVISEHLGLSWAELARELQFSVEDINRIRVENPNSLLEQSVALLNLWVIREGQNRNMENLYTALQSIDRGEIVNMLE [A58R], the abundance fitness was -0.049 ± 0.065.
Turning to MKMAVISEHLGLSWAELARELQFSVEDINRIRVENPNSLLEQSVALLNLWVIREGQNNNMENLYTALQSIDRGEIVNMLE [A58N], the abundance fitness turned out to be 0.092 ± 0.19.
For the variant MKMAVISEHLGLSWAELARELQFSVEDINRIRVENPNSLLEQSVALLNLWVIREGQNHNMENLYTALQSIDRGEIVNMLE [A58H], the abundance fitness is -0.241 ± 0.24.
For the variant MKMAVISEHLGLSWAELARELQFSVEDINRIRVENPNSLLEQSVALLNLWVIREGQNYNMENLYTALQSIDRGEIVNMLE [A58Y], the abundance fitness was -0.065 ± 0.22.
Turning to MKMAVISEHLGLSWAELARELQFSVEDINRIRVENPNSLLEQSVALLNLWVIREGQNGNMENLYTALQSIDRGEIVNMLE [A58G], the abundance fitness worked out at 0.038 ± 0.048.
Turning to MKMAVISEHLGLSWAELARELQFSVEDINRIRVENPNSLLEQSVALLNLWVIREGQNSNMENLYTALQSIDRGEIVNMLE [A58S], the abundance fitness was -0.078 ± 0.083.
